Assay results: patent US20140227293A1 (TRUSTEES OF BOSTON UNIVERSITY, published 2014)

Target: the molecule itself
Experiment: BS3 chemical cross-linking of PAE cells expressing IGPR-1 (confluent versus sparse), anti-IGPR-1 Western blot
Method: To determine whether IGPR-1 is involved in cell-cell interaction inventors subjected PAE cells expressing IGPR-1 and ΔN-IGPR-1 to aggregation/cell-cell adhesion assay. […] To further establish role of IGPR-1 in cell-cell interaction, the inventors investigated dimerization of IGPR-1 particularly its possible trans-dimerization. Inventors reasoned that if cells are plated in confluent condition, IGPR-1 could form trans-dimerization and possibly cis-dimerization (see FIG. 9C). However, plating the cells in a sparse condition, IGPR-1 will be less able to form trans-dimerization.

B1: immunoglobulin containing and proline rich receptor-1 (IGPR-1), human, full length, ectopically expressed in PAE cells (receptor)
chain: LSVQQGPNLLQVRQGSQATLVCQVDQATAWERLRVKWTKDGAILCQPYITNGSLSLGVCGPQGRLSWQAPSHLTLQLDPVSLNHSGAYVCWAAVEIPELEEAEGNITRLFVDPDDPTQNRNRIASFPGFLFVLLGVGSMGVAAIVWGAWFWGRRSCQQRDSGNSPGNAFYSNVLYRPRGPPKKSEDCSGEGKDQRGQSIYSTSFPQPAPRQPHLASRPCPSPRPCPSPRPGHPVSMVRVSPRPSPTQQPRPKGFPKVGEE
modifications: N-glycosylated (apparent 55 kDa, 31 kDa after PNGase F)
notes: Expressed from the retroviral vector pMSCV.puro in PAE (porcine aortic endothelial) cells; Used on intact cells (aggregation, adhesion, BS3 cross-linking) and as whole cell lysate (GST pull-down, co-immunoprecipitation, Western blot); also called IGRP-1; TMIGD2
**Q.** Does B1 bind?
**A.** binds
